Results taken from patent publication US20240226298A1 (JUNO THERAPEUTICS, published 2024).

T1: B-lymphocyte antigen CD19 (CD19) (human, UniProt P15391 20-556)
T1 sequence (looked up): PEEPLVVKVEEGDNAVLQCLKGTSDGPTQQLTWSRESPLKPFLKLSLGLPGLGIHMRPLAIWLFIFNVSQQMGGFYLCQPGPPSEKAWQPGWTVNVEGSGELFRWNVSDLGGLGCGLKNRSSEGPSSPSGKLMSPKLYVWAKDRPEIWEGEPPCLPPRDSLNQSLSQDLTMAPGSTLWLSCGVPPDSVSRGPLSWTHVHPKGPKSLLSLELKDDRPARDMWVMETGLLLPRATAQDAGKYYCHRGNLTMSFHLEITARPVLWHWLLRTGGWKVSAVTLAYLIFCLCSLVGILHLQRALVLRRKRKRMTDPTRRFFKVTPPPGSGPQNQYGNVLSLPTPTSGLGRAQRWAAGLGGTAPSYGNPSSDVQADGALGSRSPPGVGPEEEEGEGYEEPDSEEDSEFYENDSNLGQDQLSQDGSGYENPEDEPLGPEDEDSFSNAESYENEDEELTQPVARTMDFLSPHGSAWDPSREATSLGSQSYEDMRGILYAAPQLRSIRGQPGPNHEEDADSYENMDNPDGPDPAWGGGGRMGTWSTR


Experiments:
Experiment in all cases: cell-based or functional assay
[1] = molecular target: T2, B-cell activating factor receptor (BAFF-R) (human, UniProt Q96RJ3 1-184)
[2] = molecular target: T2, B-cell activating factor receptor …; remark: listed apart in the source
[3] = molecular target: T1, B-lymphocyte antigen CD19 (CD19)

Row | decrease in IFN-γ production with FMC63 scFv + sBAFF relative to FMC63 scFv alone (JeKo-1 co-culture) [1] [%] | inhibition of IFN-γ production by CAR T cells when JeKo-1 target cells were preincubated with both FMC63 scFv and sBAFF (20 µg/mL each), relative to target-only co-culture; legend: ++ = High, >80% [2] [%] | inhibition of IFN-γ production by CAR T cells when JeKo-1 target cells were preincubated with both FMC63 scFv and sBAFF (20 µg/mL each), relative to target-only co-culture; legend: ++ = High, >80% [3] [%] | decrease in IFN-γ production with sBAFF, alone or relative to FMC63 scFv alone (JeKo-1 co-culture) [1] [%] | decrease of IFN-γ with FMC63 scFv + sBAFF compared to the inhibition from FMC63 scFv alone (JeKo-1 co-culture) [1] [%] | Binder
1 | > 50 | > 80 | > 80 |  |  | JH1 CAR/LoP (other) DIQMTQTTSSLSASLGDRVTISCRASQDISKYLNWYQQKPDGTVKLLIYHTSRLHSGVPSRFSGSGSGTDYSLTISNLEQEDIATYFCQQGNTLPYTFGGGTKLEITGGGGSQVQLVQSGAEVKKPGASVKVSCKASGYTFTSYAMHWVRQAPGQRLEWMGWINAGNGNTKYSQKFQGRVTITRDTSASTAYMELRSLRSDDTAVYYCASGPGRLPVVWGQGTLVTVSSGGGGSGGGGSGGGGSSYVLTQPPSVSVAPGKTARITCGGNNIGSKSVHWYQQKPGQAPVLVVYDDSDRPSGIPERFSGSNSGNTATLTISRVEAGDEADYYCQVWDSSSDHVVFGGGTKLTVLGGGGSEVKLQESGPGLVAPSQSLSVTCTVSGVSLPDYGVSWIRQPPRKGLEWLGVIWGSETTYYNSALKSRLTIIKDNSKSQVFLKMNSLQTDDTAIYYCAKHYYYGGSYAMDYWGQGTSVTVSSESKYGPPCPPCPMFWVLVVVGGVLACYSLLVTVAFIIFWVKRGRKKLLYIFKQPFMRPVQTTQEEDGCSCRFPEEEEGGCELRVKFSRSADAPAYQQGQNQLYNELNLGRREEYDVLDKRRGRDPEMGGKPRRKNPQEGLYNELQKDKMAEAYSEIGMKGERRRGKGHDGLYQGLSTATKDTYDALHMQALPPR
2 |  |  |  | ≤ 20 | ≤ 10 | JH2 CAR/LoD/b (other) QVQLQESGPGLVKPSETLSLTCTVSGGSISSYYWSWIRQPPGKGLEWIGYINNSGSTNYNPSLKSRVTISVDTSKNQFSLKLSSVTAADTAVYYCAREDDYWGQGTLVTVSSGGGGSDIQMTQTTSSLSASLGDRVTISCRASQDISKYLNWYQQKPDGTVKLLIYHTSRLHSGVPSRFSGSGSGTDYSLTISNLEQEDIATYFCQQGNTLPYTFGGGTKLEITGSTSGSGKPGSGEGSTKGEVKLQESGPGLVAPSQSLSVTCTVSGVSLPDYGVSWIRQPPRKGLEWLGVIWGSETTYYNSALKSRLTIIKDNSKSQVFLKMNSLQTDDTAIYYCAKHYYYGGSYAMDYWGQGTSVTVSSGGGGSEIVMTQSPATLSLSPGERATLSCRASQIISSSYLSWYQQKPGQAPRLLIYGASTRATGIPARFSGSGSGTDFTLTISSLQPEDFAVYYCQQDYDFPFTFGPGTKVDIKRESKYGPPCPPCPMFWVLVVVGGVLACYSLLVTVAFIIFWVKRGRKKLLYIFKQPFMRPVQTTQEEDGCSCRFPEEEEGGCELRVKFSRSADAPAYQQGQNQLYNELNLGRREEYDVLDKRRGRDPEMGGKPRRKNPQEGLYNELQKDKMAEAYSEIGMKGERRRGKGHDGLYQGLSTATKDTYDALHMQALPPR
3 |  |  |  | ≤ 20 | ≤ 10 | JH2 CAR/LiD/a (other) DIQMTQTTSSLSASLGDRVTISCRASQDISKYLNWYQQKPDGTVKLLIYHTSRLHSGVPSRFSGSGSGTDYSLTISNLEQEDIATYFCQQGNTLPYTFGGGTKLEITGSTSGSGKPGSGEGSTKGEVKLQESGPGLVAPSQSLSVTCTVSGVSLPDYGVSWIRQPPRKGLEWLGVIWGSETTYYNSALKSRLTIIKDNSKSQVFLKMNSLQTDDTAIYYCAKHYYYGGSYAMDYWGQGTSVTVSSGGGGSQVQLQESGPGLVKPSETLSLTCTVSGGSISSYYWSWIRQPPGKGLEWIGYINNSGSTNYNPSLKSRVTISVDTSKNQFSLKLSSVTAADTAVYYCAREDDYWGQGTLVTVSSGGGGSGGGGSGGGGSEIVMTQSPATLSLSPGERATLSCRASQIISSSYLSWYQQKPGQAPRLLIYGASTRATGIPARFSGSGSGTDFTLTISSLQPEDFAVYYCQQDYDFPFTFGPGTKVDIKRESKYGPPCPPCPMFWVLVVVGGVLACYSLLVTVAFIIFWVKRGRKKLLYIFKQPFMRPVQTTQEEDGCSCRFPEEEEGGCELRVKFSRSADAPAYQQGQNQLYNELNLGRREEYDVLDKRRGRDPEMGGKPRRKNPQEGLYNELQKDKMAEAYSEIGMKGERRRGKGHDGLYQGLSTATKDTYDALHMQALPPR
4 |  |  |  | ≤ 20 | ≤ 10 | JH4 CAR/LiD (other) DIQMTQTTSSLSASLGDRVTISCRASQDISKYLNWYQQKPDGTVKLLIYHTSRLHSGVPSRFSGSGSGTDYSLTISNLEQEDIATYFCQQGNTLPYTFGGGTKLEITGSTSGSGKPGSGEGSTKGEVKLQESGPGLVAPSQSLSVTCTVSGVSLPDYGVSWIRQPPRKGLEWLGVIWGSETTYYNSALKSRLTIIKDNSKSQVFLKMNSLQTDDTAIYYCAKHYYYGGSYAMDYWGQGTSVTVSSGGGGSQVQLQESGPGLVKPSETLSLTCTVSGGSISSYYWSWIRQSPGKGLEWIGYIHYSGNTNYNPSLKSRVTISVDTSKNQFSLKLSSVTAADTAVYYCAREDDYWGQGTLVTVSSGGGGSGGGGSGGGGSEIVMTQSPATLSLSPGERATLSCRASQSVSSNYLSWYQQKPGQAPRLLIYGASTRATGIPARFSGSGSGTDFTLTISSLQPEDFAVYYCQQDFDFPFTFGPGTKVDIKRESKYGPPCPPCPMFWVLVVVGGVLACYSLLVTVAFIIFWVKRGRKKLLYIFKQPFMRPVQTTQEEDGCSCRFPEEEEGGCELRVKFSRSADAPAYQQGQNQLYNELNLGRREEYDVLDKRRGRDPEMGGKPRRKNPQEGLYNELQKDKMAEAYSEIGMKGERRRGKGHDGLYQGLSTATKDTYDALHMQALPPR
5 |  |  |  | ≤ 20 | ≤ 10 | JH2 CAR/LiD/b (other) DIQMTQTTSSLSASLGDRVTISCRASQDISKYLNWYQQKPDGTVKLLIYHTSRLHSGVPSRFSGSGSGTDYSLTISNLEQEDIATYFCQQGNTLPYTFGGGTKLEITGSTSGSGKPGSGEGSTKGEVKLQESGPGLVAPSQSLSVTCTVSGVSLPDYGVSWIRQPPRKGLEWLGVIWGSETTYYNSALKSRLTIIKDNSKSQVFLKMNSLQTDDTAIYYCAKHYYYGGSYAMDYWGQGTSVTVSSGGGGSEIVMTQSPATLSLSPGERATLSCRASQIISSSYLSWYQQKPGQAPRLLIYGASTRATGIPARFSGSGSGTDFTLTISSLQPEDFAVYYCQQDYDFPFTFGPGTKVDIKRGGGGSGGGGSGGGGSQVQLQESGPGLVKPSETLSLTCTVSGGSISSYYWSWIRQPPGKGLEWIGYINNSGSTNYNPSLKSRVTISVDTSKNQFSLKLSSVTAADTAVYYCAREDDYWGQGTLVTVSSESKYGPPCPPCPMFWVLVVVGGVLACYSLLVTVAFIIFWVKRGRKKLLYIFKQPFMRPVQTTQEEDGCSCRFPEEEEGGCELRVKFSRSADAPAYQQGQNQLYNELNLGRREEYDVLDKRRGRDPEMGGKPRRKNPQEGLYNELQKDKMAEAYSEIGMKGERRRGKGHDGLYQGLSTATKDTYDALHMQALPPR
6 | > 50 | > 80 | > 80 |  | ≤ 10 | JH2 CAR/LoP (other) DIQMTQTTSSLSASLGDRVTISCRASQDISKYLNWYQQKPDGTVKLLIYHTSRLHSGVPSRFSGSGSGTDYSLTISNLEQEDIATYFCQQGNTLPYTFGGGTKLEITGGGGSQVQLQESGPGLVKPSETLSLTCTVSGGSISSYYWSWIRQPPGKGLEWIGYINNSGSTNYNPSLKSRVTISVDTSKNQFSLKLSSVTAADTAVYYCAREDDYWGQGTLVTVSSGGGGSGGGGSGGGGSEIVMTQSPATLSLSPGERATLSCRASQIISSSYLSWYQQKPGQAPRLLIYGASTRATGIPARFSGSGSGTDFTLTISSLQPEDFAVYYCQQDYDFPFTFGPGTKVDIKRGGGGSEVKLQESGPGLVAPSQSLSVTCTVSGVSLPDYGVSWIRQPPRKGLEWLGVIWGSETTYYNSALKSRLTIIKDNSKSQVFLKMNSLQTDDTAIYYCAKHYYYGGSYAMDYWGQGTSVTVSSESKYGPPCPPCPMFWVLVVVGGVLACYSLLVTVAFIIFWVKRGRKKLLYIFKQPFMRPVQTTQEEDGCSCRFPEEEEGGCELRVKFSRSADAPAYQQGQNQLYNELNLGRREEYDVLDKRRGRDPEMGGKPRRKNPQEGLYNELQKDKMAEAYSEIGMKGERRRGKGHDGLYQGLSTATKDTYDALHMQALPPR
7 |  |  |  | ≤ 20 | ≤ 10 | JH3 CAR/LoD (other) EIVMTQSPATLSLSPGERATLSCRASQSVSSNYFSWYQQKPGQAPRLLIYGASTRATGIPARFSGSGSGTDFTLTISSLQPEDFAVYYCQQDYDFPFTFGPGTKVDIKRGGGGSGGGGSDIQMTQTTSSLSASLGDRVTISCRASQDISKYLNWYQQKPDGTVKLLIYHTSRLHSGVPSRFSGSGSGTDYSLTISNLEQEDIATYFCQQGNTLPYTFGGGTKLEITGSTSGSGKPGSGEGSTKGEVKLQESGPGLVAPSQSLSVTCTVSGVSLPDYGVSWIRQPPRKGLEWLGVIWGSETTYYNSALKSRLTIIKDNSKSQVFLKMNSLQTDDTAIYYCAKHYYYGGSYAMDYWGQGTSVTVSSGGGGSGGGGSQVQLQESGPGLVKPSETLSLTCTVSGGSISNYYWSWIRQPPGKGLEWIGYIYYSGSTIYNPSLKSRVTISVDTSKNQFSLKLSSVTAADTAVYYCAGDSSGIDYWGQGTLVTVSSESKYGPPCPPCPMFWVLVVVGGVLACYSLLVTVAFIIFWVKRGRKKLLYIFKQPFMRPVQTTQEEDGCSCRFPEEEEGGCELRVKFSRSADAPAYQQGQNQLYNELNLGRREEYDVLDKRRGRDPEMGGKPRRKNPQEGLYNELQKDKMAEAYSEIGMKGERRRGKGHDGLYQGLSTATKDTYDALHMQALPPR
